Target: HLA-A*11:01 on TAP2-KO HLA class I monoallelic TISI cells (human | human (endogenous in TISI))
Experiment: flow cytometry on cells

Row | Binder | ΔHLA (% control) [%]
1 | VVGACGVGK [KRAS_G12C epitope peptide …] | 234
2 | VVGAGDVGK | 181
3 | VVGAAGVGK [KRAS_G12A epitope peptide …] | 218
4 | VVGASGVGK [KRAS_G12S epitope peptide …] | 219
5 | SSCMGSMNR [TP53_G245S epitope peptide …] | 107
6 | VVVGAGDVGK | 195
7 | ISTRDPLSK | 124
8 | KAISTRDPLSK | 127

Reference: PMC10320429
